According to patent publication US20180009871A1 (INTARCIA THERAPEUTICS, published 2018):
Where no end group is shown, it is not given here. [ ]: non-standard residue; d: D form. Aib = CC(C)(N)C(=O)O

T1: hGIPR (human, UniProt P48546 22-466, limits assumed)
T1 sequence (looked up): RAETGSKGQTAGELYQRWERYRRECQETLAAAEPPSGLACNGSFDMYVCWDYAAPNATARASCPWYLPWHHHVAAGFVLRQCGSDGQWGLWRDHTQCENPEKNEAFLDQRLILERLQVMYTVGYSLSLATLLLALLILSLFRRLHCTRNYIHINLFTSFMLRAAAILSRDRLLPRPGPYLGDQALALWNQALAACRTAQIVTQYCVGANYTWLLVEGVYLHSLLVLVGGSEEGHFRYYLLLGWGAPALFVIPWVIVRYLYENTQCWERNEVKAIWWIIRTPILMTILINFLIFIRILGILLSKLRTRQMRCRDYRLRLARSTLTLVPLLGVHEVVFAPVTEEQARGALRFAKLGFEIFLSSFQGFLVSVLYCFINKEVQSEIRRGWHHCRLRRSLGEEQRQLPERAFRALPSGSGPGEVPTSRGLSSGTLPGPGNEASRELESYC

B1: Compound A1 (peptide)
peptide: YSHGTFTSDYSKYLD[Aib]KYAQEFV[Aib]WLEDEPSSGAPPPS-OH
modifications: N-terminus assumed
SMILES: CC(C)C[C@H](NC(=O)[C@H](Cc1ccc(O)cc1)NC(=O)[C@H](CCCCN)NC(=O)[C@H](CO)NC(=O)[C@H](Cc1ccc(O)cc1)NC(=O)[C@H](CC(=O)O)NC(=O)[C@H](CO)NC(=O)[C@@H](NC(=O)[C@H](Cc1ccccc1)NC(=O)[C@@H](NC(=O)CNC(=O)[C@H](Cc1c[nH]cn1)NC(=O)[C@H](CO)NC(=O)[C@@H](N)Cc1ccc(O)cc1)[C@@H](C)O)[C@@H](C)O)C(=O)N[C@@H](CC(=O)O)C(=O)NC(C)(C)C(=O)N[C@@H](CCCCN)C(=O)N[C@@H](Cc1ccc(O)cc1)C(=O)N[C@@H](C)C(=O)N[C@@H](CCC(N)=O)C(=O)N[C@@H](CCC(=O)O)C(=O)N[C@@H](Cc1ccccc1)C(=O)N[C@H](C(=O)NC(C)(C)C(=O)N[C@@H](Cc1c[nH]c2ccccc12)C(=O)N[C@@H](CC(C)C)C(=O)N[C@@H](CCC(=O)O)C(=O)N[C@@H](CC(=O)O)C(=O)N[C@@H](CCC(=O)O)C(=O)N1CCC[C@H]1C(=O)N[C@@H](CO)C(=O)N[C@@H](CO)C(=O)NCC(=O)N[C@@H](C)C(=O)N1CCC[C@H]1C(=O)N1CCC[C@H]1C(=O)N1CCC[C@H]1C(=O)N[C@@H](CO)C(=O)O)C(C)C
B2: Compound A4 (peptide)
peptide: YSHGTFTSDYSKYLD[Aib]KRAQEFVIWLEDEPSSGAPPPS-OH
modifications: N-terminus assumed
SMILES: CC[C@H](C)[C@H](NC(=O)[C@@H](NC(=O)[C@H](Cc1ccccc1)NC(=O)[C@H](CCC(=O)O)NC(=O)[C@H](CCC(N)=O)NC(=O)[C@H](C)NC(=O)[C@H](CCCNC(=N)N)NC(=O)[C@H](CCCCN)NC(=O)C(C)(C)NC(=O)[C@H](CC(=O)O)NC(=O)[C@H](CC(C)C)NC(=O)[C@H](Cc1ccc(O)cc1)NC(=O)[C@H](CCCCN)NC(=O)[C@H](CO)NC(=O)[C@H](Cc1ccc(O)cc1)NC(=O)[C@H](CC(=O)O)NC(=O)[C@H](CO)NC(=O)[C@@H](NC(=O)[C@H](Cc1ccccc1)NC(=O)[C@@H](NC(=O)CNC(=O)[C@H](Cc1c[nH]cn1)NC(=O)[C@H](CO)NC(=O)[C@@H](N)Cc1ccc(O)cc1)[C@@H](C)O)[C@@H](C)O)C(C)C)C(=O)N[C@@H](Cc1c[nH]c2ccccc12)C(=O)N[C@@H](CC(C)C)C(=O)N[C@@H](CCC(=O)O)C(=O)N[C@@H](CC(=O)O)C(=O)N[C@@H](CCC(=O)O)C(=O)N1CCC[C@H]1C(=O)N[C@@H](CO)C(=O)N[C@@H](CO)C(=O)NCC(=O)N[C@@H](C)C(=O)N1CCC[C@H]1C(=O)N1CCC[C@H]1C(=O)N1CCC[C@H]1C(=O)N[C@@H](CO)C(=O)O
B3: Compound A5 (peptide)
peptide: YSHGTFTSDYSKYLDSARAQEFVKWLEDEPSSGAPPPS-NH2

Tests used:
Assay in all cases: cell-based or functional assay
[1] = biological target: T2, human GLP-1 receptor (GLP-1R) (human, UniProt P43220 24-463)
T2 sequence (P43220 24-463): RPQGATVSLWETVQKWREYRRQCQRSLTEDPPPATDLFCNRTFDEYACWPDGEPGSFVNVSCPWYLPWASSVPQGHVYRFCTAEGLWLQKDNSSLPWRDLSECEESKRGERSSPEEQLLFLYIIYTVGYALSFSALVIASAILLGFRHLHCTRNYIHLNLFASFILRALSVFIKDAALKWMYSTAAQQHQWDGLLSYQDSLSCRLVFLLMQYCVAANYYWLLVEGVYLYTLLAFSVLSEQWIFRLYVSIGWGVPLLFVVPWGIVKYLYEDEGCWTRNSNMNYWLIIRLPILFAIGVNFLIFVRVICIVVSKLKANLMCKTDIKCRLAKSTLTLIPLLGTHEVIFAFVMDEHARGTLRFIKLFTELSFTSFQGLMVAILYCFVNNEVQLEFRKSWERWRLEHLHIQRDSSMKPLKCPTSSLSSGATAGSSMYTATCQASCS

[2] = biological target: T3, human glucagon receptor (GCGR) (human, UniProt P47871 26-477)
[3] = biological target: T2, human GLP-1 receptor (GLP-1R); remark: listed apart in the source
[4] = biological target: T3, human glucagon receptor (GCGR); remark: listed apart in the source
[5] = biological target: T1, hGIPR
[6] = biological target: human GLP-1 receptor (GLP-1R) (human, UniProt P43220 24-463); remark: listed apart in the source
Target sequence in this assay (P43220 24-463): as above

[7] = biological target: human glucagon receptor (GCGR) (human, UniProt P47871 26-477); remark: listed apart in the source

Row | Binder | GLP-1R pEC 50 [1] [pEC50] | GluR pEC 50 [2] [pEC50] | Human in vitro Potency (pEC50), hGLP-1R [3] [pEC50] | Human in vitro Potency (pEC50), hGCGR [4] [pEC50] | Human in vitro Potency (pEC50), hGIPR [5] [pEC50] | hGLP1 pEC50 (cAMP) mean (n = 9): 11 point curve starting at 500 uM [6] [pEC50] | hGCGR pEC50 (cAMP) mean (n = 9): 11 point curve starting at 1 uM [7] [pEC50]
1 | B1 | < 6 | 10.6 | 5.2 | 12.3 | < 5 | – | –
2 | B2 | – | – | – | – | – | < 5 | 11.8
3 | B3 | – | – | – | – | – | 5.8 | 11.8
